Assays:
[1] = system: captor antibody against the N-terminal PTH fragment (anti-hPTH(1-34)); assay: Spiking experiments with hPTH(1-37) fragments, Nichols IRMA intact PTH test; type: binding, goat; settings: 1000 pM hPTH(1-37) added
Procedure: The Nichols Intact PTH Assay (Nichols Institute, San Juan Capistrano, Calif., U.S.A) is a double binding immunoradiometry assay (IRMA) with two polyclonal goat antibodies. […] The second detection antibody, marked with ^125Iodine, recognizes an epitope in the N-terminal section of the PTH (anti-hPTH(1-34)). The sample was incubated at the same time with the antibody coated beads and the ^125Iodine marked detection antibody overnight (12±2 h) at room temperature. After the incubation, the beads were washed and the radioactivity adhering to the solid phase measured in a gamma counter (LKB1277 Gamma Master from Perkin-Elmer). The dose measurement curve (MultiCalc Software) between bound radioactivity and concentration in the sample was determined strictly in accordance with the manufacturer's instructions via a standard measured at the same time. […]
The standard sample and the plasma pools where in each case treated with three different concentrations of hPTH(1-37) fragments in five different oxidation and state forms and then the recovered PTH contents determined. […]
There were produced from each fragment solution three initial concentrations (1000 nM, 100 nM and 10 nM). A further dilution of the fragment solutions 1:100 in the standard and in the pool plasma yielded final concentrations of […] in the sample to be analyzed. […]

[2] = system: polyclonal antibodies employed in the Nichols test; assay: Oxidation and reduction of plasma samples, measured with Nichols IRMA; design: species or system goat; settings: H2O2 oxidation
Procedure: The Nichols Intact PTH Assay (Nichols Institute, San Juan Capistrano, Calif., U.S.A) is a double binding immunoradiometry assay (IRMA) with two polyclonal goat antibodies. The captor antibody, immobilized in plastic beads, binds only in the middle or C-terminal section of the hPTH (anti-hPTH(39-89)). The second detection antibody, marked with ^125Iodine, recognizes an epitope in the N-terminal section of the PTH (anti-hPTH(1-34)). The sample was incubated at the same time with the antibody coated beads and the ^125Iodine marked detection antibody overnight (12±2 h) at room temperature. After the incubation, the beads were washed and the radioactivity adhering to the solid phase measured in a gamma counter (LKB1277 Gamma Master from Perkin-Elmer). The dose measurement curve (MultiCalc Software) between bound radioactivity and concentration in the sample was determined strictly in accordance with the manufacturer's instructions via a standard measured at the same time. The interassay variance in the normal and increased region was less than 10% CV.
(§1) 30 plasma samples of dialysis patients and ESRD patients (ESRD=end stage renal disease) were selected at random and oxidized with hydrogen peroxide (30%; end concentration: 1.5 Mol/L) or reduced with sodium boron hydride (NaBH4, aqueous solution of 100 nMol/L). All samples, treated and untreated, where measured at the same time with the Roche Elecsys™2010 and the Nichols IRMA test.
(§2) The oxidation was effected with 30% hydrogen peroxide solution. The hydrogen peroxide concentration in the incubation preparation was at 17% of the 30% solution. All samples were incubated for 45 minutes at 37° C., then also cooled down to −70° C., lyophilized and stored at −20° C. until the quantitative PTH determination.
Of 20 samples an aliquot of each in the ratio 1:1 (v/v) was treated and reduced with a 100 nMol NaBH4 solution. Further, of 10 oxidized samples in each case an aliquot was reverse reduced by the addition of a 100 nMol NaBH4 solution in the ratio 1:1. […]

[3] = system: captor antibody used in the Roche Elecsys 2010 PTH test; assay: Oxidation and reduction of plasma samples, measured with Roche Elecsys 2010 PTH test
Procedure: The Roche Elecsys™ PTH assay is an electrochemiluminescence immunoassay (ECLIA) on the fully automatic immunoanalyzer Elecsys ^R2010. The epitope recognized by the biotinylated captor antibody contains the PTH amino acids 26 to 32 and the monoclonal ruthenium detection antibody recognizes, in accordance with the information from the manufacturer, an epitope in the region of the PTH amino acids 55 to 64. Sample and antibodies were incubated together for 9 minutes at 37° C., Streptavidin coated paramagnetic beads introduced to the incubation mixture, and finally incubated for further 9 minutes. After magnetic separation of the bonded conjugates from the free conjugates on an electrode surface the luminescence was determined and the end PTH concentration determined via a recalibrated master curve. The interassay variance in the lower and upper normal region was less than 7% CV and in the high concentration region 5% CV.
as §1, §2
Of 20 samples an aliquot of each in the ratio 1:1 (v/v) was treated and reduced with a 100 nMol NaBH4 solution. Further, of 10 oxidized samples in each case an aliquot was reverse reduced by the addition of a 100 nMol NaBH4 solution in the ratio 1:1. The samples were incubated for 45 minutes at room temperature and the reaction stopped on dry ice. After the lyophilization the samples were deep frozen at −20° C. until determination. The diagrams of FIGS. 5 to 11 show the results.

[4] = H2O2 oxidation, individual samples

Molecule | signal reduction to % of the native measured sample [1] [%] | concentration after oxidation, average, of the initial value [2] [%] | highest remaining concentration after oxidation, % of initial value (smallest reduction) ([2]; individual samples) [%] | lowest remaining concentration after oxidation, % of initial value (largest reduction) ([2]; individual samples) [%] | measurement value after oxidation, average, of the initial value ([3]; H2O2 oxidation, 45 minutes at 37° C., plasma of dialysis and ESRD patients) [%] | highest remaining measurement signal after oxidation, % of initial value [3, 4] [%] | lowest remaining measurement signal after oxidation, % of initial value [3, 4] [%] | measurement value after oxidation and reverse reduction, of the initial value ([3]; H2O2 then NaBH4)
hPTH(1-37): native hPTH(1-37) fragment of human parathyroid hormone, from IPF or Immundiagnostik AG (SVSEIQLMHNLGKHLNSMERVEWLRKKLQDVHNFVAL; Parathyroid hormone; UniProt P01270 32-68, looked up, fragment) | 50 |  |  |  |  |  |  | 
PTH: parathyroid hormone, single polypeptide chain of 84 amino acids, endogenous in plasma samples of dialysis patients (protein, UniProt P01270 32-115, looked up, Parathyroid hormone, parathyroid hormone, single polypeptide chain of 84 amino acids, endogenous in plasma samples of dialysis patients) Parathyroid hormone: SVSEIQLMHNLGKHLNSMERVEWLRKKLQDVHNFVALGAPLAPRDAGSQRPRKKEDNVLVESHEKSLGEADKADVNVLTKAKSQ |  | 76 | 98 | 33 | 29 | 53 | 10 | ca. 50%
